Laboratory results taken from EP2025683A1 (INSERM (Institut National de la Santé et de la Recherche …, dated 2009).
Changes are numbered by the printed parent chain. Names and notes keep the numbering of the source. Each block holds one molecule with its values, some of them ahead of it.

Tests used:
human prolactin receptor [1] = target: T1, human prolactin receptor (human, UniProt P16471 25-622); assay: cell-based or functional assay
T1 sequence (looked up): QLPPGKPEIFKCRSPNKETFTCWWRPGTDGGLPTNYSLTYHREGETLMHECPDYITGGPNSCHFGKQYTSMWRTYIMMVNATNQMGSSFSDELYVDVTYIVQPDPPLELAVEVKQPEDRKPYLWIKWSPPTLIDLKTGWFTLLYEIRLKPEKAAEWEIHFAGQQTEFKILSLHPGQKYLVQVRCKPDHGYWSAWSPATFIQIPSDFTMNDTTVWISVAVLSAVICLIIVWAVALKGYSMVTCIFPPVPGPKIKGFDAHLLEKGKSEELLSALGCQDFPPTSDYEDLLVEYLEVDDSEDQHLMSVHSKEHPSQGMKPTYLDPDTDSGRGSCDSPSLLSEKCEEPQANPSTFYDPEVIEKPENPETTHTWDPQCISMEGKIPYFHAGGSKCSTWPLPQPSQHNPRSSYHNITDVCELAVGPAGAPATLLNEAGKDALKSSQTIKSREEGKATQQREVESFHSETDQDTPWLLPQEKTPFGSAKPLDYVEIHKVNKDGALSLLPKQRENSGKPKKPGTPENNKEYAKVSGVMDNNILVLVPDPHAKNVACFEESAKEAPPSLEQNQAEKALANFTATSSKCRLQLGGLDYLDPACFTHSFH

human prolactin receptor [2] = target: T1, human prolactin receptor; assay: displacement of [125I]-hPRL, homogenates of HEK 293 cells stably expressing hPRLR (HL-5 clone)

B1: G129D-hPRL (ligand, human, UniProt P01236 29-227, looked up)
chain: LPICPGGAARCQVTLRDLFDRAVVLSHYIHNLSSEMFSEFDKRYTHGRGFITKAINSCHTSSLATPEDKEQAQQMNQKDFLSLIVSILRSWNEPLYHLVTEVRGMQEAPEAILSKAVEIEEQTKRLLEDMELIVSQVHPETKENEIYPVWSGLPSLQMADEESRLSAYYNLLHCLRRDSHKIDNYLKLLKCRIIHNNNC
- Agonism Ba/F-LP cells (% of hPRL max activity) (human prolactin receptor [1]): 23.6 % of hPRL max activity
- Antagonism HL-5 cells IC50 (human prolactin receptor [1]): 340 nM

B5: G129L-hPRL (ligand, human, UniProt P01236 29-227, looked up)
chain: B1 chain with D129L
- Agonism Ba/F-LP cells (% of hPRL max activity) (human prolactin receptor [1]): 16.8 % of hPRL max activity
- Antagonism HL-5 cells IC50 (human prolactin receptor [1]): 160 nM

B6: G129F-hPRL (ligand, human, UniProt P01236 29-227, looked up)
chain: B1 chain with D129F
- Agonism Ba/F-LP cells (% of hPRL max activity) (human prolactin receptor [1]): 19.1 % of hPRL max activity
- Antagonism HL-5 cells IC50 (human prolactin receptor [1]): 110 nM

B7: G129N-hPRL (ligand, human, UniProt P01236 29-227, looked up)
chain: B1 chain with D129N
- Agonism Ba/F-LP cells (% of hPRL max activity) (human prolactin receptor [1]): 26.4 % of hPRL max activity
- Antagonism HL-5 cells IC50 (human prolactin receptor [1]): 130 nM

Further lines, results first:

- Agonism Ba/F-LP cells (% of hPRL max activity) (% of hPRL max activity) (human prolactin receptor [1]): 8.3
- Antagonism HL-5 cells IC50 (human prolactin receptor [1]): 120 nM
Molecule: Del1-9-G129R-hPRL (from UniProt P01236 29-227) (ligand)

- Agonism Ba/F-LP cells (% of hPRL max activity) (human prolactin receptor [1]): 14.2 % of hPRL max activity
- Antagonism HL-5 cells IC50 (human prolactin receptor [1]): 110 nM
B2: G129V-hPRL (ligand, human, UniProt P01236 29-227, looked up)
chain: B1 chain with D129V

- Agonism Ba/F-LP cells (% of hPRL max activity) (human prolactin receptor [1]): 45.5 % of hPRL max activity
- Antagonism HL-5 cells IC50 (human prolactin receptor [1]): 200 nM
- IC50 (human prolactin receptor [2]): 19 nM
- affinity relative to WT hPRL (human prolactin receptor [2]): ~1 order of magnitude lower than WT hPRL
B3: G129R-hPRL (ligand, human, UniProt P01236 29-227, looked up)
chain: B1 chain with D129R
notes: mature

- Agonism Ba/F-LP cells (% of hPRL max activity) (human prolactin receptor [1]): 24.3 % of hPRL max activity
- Antagonism HL-5 cells IC50 (human prolactin receptor [1]): 190 nM
B4: G129Y-hPRL (ligand, human, UniProt P01236 29-227, looked up)
chain: B1 chain with D129Y

- Agonism Ba/F-LP cells (% of hPRL max activity) (human prolactin receptor [1]): 90.4 % of hPRL max activity
- Antagonism HL-5 cells IC50 (human prolactin receptor [1]): 340 nM
B8: G129P-hPRL (ligand, human, UniProt P01236 29-227, looked up)
chain: B1 chain with D129P
